Test results: patent publication US20050119174A1, “Novel blood sugar controller and method of screening the same” (Sumitomo Pharmaceuticals Co. Ltd., priority 2002, published 2005)
Where no end group is shown, it is not given here.

What was measured:
[1] = tested on: diabetic model mouse C57BL/KsJ-db/db mice; assay: Oral glucose tolerance test; assay type: in vivo; details: for glucose tolerance ameliorating effect (blood glucose level after glucose loading): db/db mice fasted overnight, intravenous, mouse IP-10 6 μg/head, GLP-1 (7-36 Amide) 50 μg/head, 3 g/kg D-glucose orally, 0-135 minutes, FIGS. 2 and 3; for blood glucose levels at 90 minutes after glucose loading: db/db mice, intravenous mouse Mig or human I-TAC, versus solvent control group, FIG. 4
Method: In the test, diabetic model mouse C57BL/KsJ-db/db mice (male, SPF grade, 7-week old, Clea Japan) were fasted overnight from the day before testing, mouse IP-10 (PEPRO TECH) or GLP-1 (7-36 Amide) (Peptide Institute), previously dried, was dissolved in physiological saline (Otsuka Pharmaceutical), and intravenous administration was conducted (6 μg/head; n=4 for IP-10, 50 μg/head; n=4 for GLP-1). For a solvent control group, physiological saline (Otsuka Pharmaceutical) was used (n=4). After intravenous administration, 3 g/kg of D-glucose was orally administered. Before glucose loading (0 minute) and 15, 45, 90 and 135 minutes after glucose loading, blood was collected from the caudal vein, and blood glucose levels were measured in accordance with the method described below.
That is, 10 μl of blood was collected and mixed with 100 μL of 0.4 N perchloric acid, further 50 μL of 0.37 M potassium carbonate was added, and the supernatant after centrifugation was analyzed using the Glucose CII•Test Wako (glucose quantitation kit, mutarotase•GOD method, Wako Pure Chemicals) to determine the blood glucose level.
Also for Mig and I-TAC, which are CXCR3 ligands other than IP-10, mouse Mig or human I-TAC (both manufactured by BIOCARTA), previously dried, was dissolved in physiological saline (Otsuka Pharmaceutical), intravenous administration was conducted, and glucose tolerance ameliorating action was evaluated by the same technique.

human CXCR3 (human) = human CXCR3 (human) (UniProt P49682); assay: cell-based or functional assay
[2] = tested on: CHO/Gqi5 cell line incorporating an empty vector (pcDNA3.1); assay: Calcium signaling using FLIPR, CHO/Gqi5 cells transfected with control pcDNA3.1 (empty vector); assay type: cell-based; details: control pcDNA3.1 transfected CHO/Gqi5 cells; human ligands, 300 ng/ml; FIG. 5
Method: (§1) CHO/Gqi5 cells, at 2×10^4 cells/well, were sown to a 96-well Black bottom clear plate (Corning), and cultured in the absence of antibiotics in a CO2 incubator for 24 hours. 50 ng of pcDNA3.1/Zeo-CXCR3 or pcDNA3.1 was diluted in 5 μl of OPTI-MEM, and 0.3 μl of LipofectAmine was diluted in 5 μl of OPTI-MEM. Both were mixed and allowed to stand at room temperature for 30 minutes, after which 40 μl of a serum-free F12 medium was added, and the mixture was added to wells once washed with a serum-free F12 medium. After cultivation in a CO2 incubator for 4 hours, the medium was replaced with a 10% FBS-supplemented F12 medium (once washed), and the cells were cultured in a CO2 incubator for 24 hours and subjected to a measurement using FLIPR®.
(§2) The cells recovered from each well were sown to a 96-well Black bottom clear plate (Corning). When cell counting was possible, the cells were sown at 2×10^4 cells/well. Next day, the medium was removed, 50 μl of an H/H/F/PB solution containing 2 μM Fluo-3-AM and 0.02% Pluronic acid was added, and cultivation was conducted in a CO2 incubator for 1 hour. […]

CXCR3 [3] = target: T1, CXCR3 (Homo sapiens, UniProt P49682); assay: Calcium signaling using FLIPR, CHO/Gqi5 line stably expressing CXCR3 (#122-17); assay type: cell-based; parameters: prepared by amplifying the coding region of human CXCR3 by the PCR technique; expressed in transfected cells; host or cells: CHO/Gqi5 cells; details: #122-17 line, FIG. 6; for concentration dependency of the response: human ligands at 100, 300, 1,000 ng/ml; for ligand concentration from which responsiveness could be confirmed: human ligands
T1 sequence (P49682 1-368): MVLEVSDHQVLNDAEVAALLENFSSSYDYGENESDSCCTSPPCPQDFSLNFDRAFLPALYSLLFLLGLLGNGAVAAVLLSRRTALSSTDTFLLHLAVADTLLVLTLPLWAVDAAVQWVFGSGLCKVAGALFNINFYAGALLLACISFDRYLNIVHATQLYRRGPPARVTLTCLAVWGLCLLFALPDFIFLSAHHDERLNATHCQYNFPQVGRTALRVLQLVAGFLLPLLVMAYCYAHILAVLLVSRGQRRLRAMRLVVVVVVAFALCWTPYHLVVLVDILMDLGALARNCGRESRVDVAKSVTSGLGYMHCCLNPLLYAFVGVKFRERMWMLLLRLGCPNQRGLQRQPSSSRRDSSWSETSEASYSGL
Method: 1×10^6 cells were sown to a T25 flask, and cultured in a CO2 incubator for 24 hours. pcDNA3.1/Zeo-CXCR3 was cleaved with the restriction endonuclease SspI, and linearized at the vector portion. 2.5 μg of this plasmid DNA was diluted in 250 μl of OPTI-MEM, and 15 μl of LipofectAmine was diluted in 250 μl of OPTI-MEM. Both were mixed and allowed to stand at room temperature for 30 minutes, after which 2 ml of a serum-free F12 medium was added, and the mixture was added to a flask once washed with a serum-free F12 medium. After cultivation in a CO2 incubator for 4 hours, the medium was replaced with a 10% FBS-supplemented F12 medium (once washed), and cultivation was conducted in a CO2 incubator for 48 hours. The cells were recovered and sown to a 96-well plate at 1, 5 or 25 cells/well. At this time, Zeocin was added at 250 μg/ml. Three 96-well plates for each cell concentration, i.e., a total of nine plates, were cultured. About 20 days later, cells were recovered from the wells with evidence of cell proliferation, and sown to a 96-well Black bottom clear plate (Corning). Next day the plate was subjected to a measurement using FLIPR®, and selection of lines showing good ligand responsiveness was performed. For the lines showing good ligand responsiveness, recloning was performed. Each was selected at 0.1 cells/well on the 96-well plate, cells were recovered from the wells showing evidence of cell proliferation after about 20 days, and line selection was performed in the same manner as above.
The cells recovered from each well were sown to a 96-well Black bottom clear plate (Corning). When cell counting was possible, the cells were sown at 2×10^4 cells/well. Next day, the medium was removed, 50 μl of an H/H/F/PB solution containing 2 μM Fluo-3-AM and 0.02% Pluronic acid was added, and cultivation was conducted in a CO2 incubator for 1 hour. The medium was replaced with 100 μl of H/H/F/PB solution and heating was conducted in a CO2 incubator for 10 minutes, after which the plate was set to FLIPR® and further heated at 37° C. for 10 minutes, after which 25 μl of the ligand similarly heated at 37° C. was added using an injector, and a measurement of calcium signaling was conducted.
By the aforementioned method of (2)-2., pcDNA3.1/Zeo-CXCR3 was cleaved with the restriction endonuclease SspI and linearized at the vector portion. This was transfected to CHO/Gqi5 cells, and drug-resistant lines were selected using 250 μg/ml zeocin to obtain 156 drug-resistant lines. Next, for these resistant lines, responsiveness to IP-10 was confirmed using FLIPR®, and lines showing high ligand responsiveness (6 clones) were isolated. […]

CXCR3 [4] = target: T1, CXCR3; assay: Calcium signaling using FLIPR, CHO/Gqi5 cells transiently expressing CXCR3; assay type: cell-based; parameters: prepared by amplifying the coding region of human CXCR3 by the PCR technique; expressed in transfected cells; host or cells: CHO/Gqi5 cells; details: pcDNA3.1/Zeo-CXCR3 transiently transfected CHO/Gqi5 cells; human ligands, 300 ng/ml; FIG. 5
Method: as §1, §2

CXCR3 [5] = target: T1, CXCR3; details: J. Biol. Chem., 273(29): 18288-18291 (1998); Eur. J. Immunol., 29 (1999); cited from earlier work

GLP-1 (7-36 Amide) (HAEGTFTSDVSSYLEGQAAKEFIAWLVKGR-NH2; UniProt P01275 98-127, looked up) [a kind of incretin known to act on the pancreas to promote insulin secretion (Peptide Institute), reference compound]
glucose tolerance ameliorating effect (blood glucose level after glucose loading) [1]: glucose tolerance ameliorating effect

Human IP-10 (Peprotech) (from UniProt P02778 22-98) (ligand)
lowest ligand concentration giving a calcium response (FLIPR) in the CXCR3 stably expressing CHO/Gqi5 line #122-17 (human CXCR3 (human)): 300 ng/mL

I-TAC: CXC chemokine, physiological ligand for CXCR3; human I-TAC
blood glucose levels at 90 minutes after glucose loading [1]: decreased compared to the solvent control group
responsiveness to ligand (calcium signaling, fluorescence intensity) [2]: no response was detected
concentration dependency of the response (CXCR3 [3]): concentration dependency could be confirmed
ligand concentration from which responsiveness could be confirmed (CXCR3 [3]): ≥ 100 ng/mL
responsiveness to ligand (calcium signaling, fluorescence intensity) (CXCR3 [4]): a response was observed

IP-10: CXC chemokine, physiological ligand for CXCR3; mouse IP-10 (PEPRO TECH) in Example 1, human IP-10 (Peprotech) in Example 4
glucose tolerance ameliorating effect (blood glucose level after glucose loading) [1]: glucose tolerance ameliorating effect nearly equivalent, on a dose basis, to that of GLP-1
responsiveness to ligand (calcium signaling, fluorescence intensity) [2]: no response was detected
concentration dependency of the response (CXCR3 [3]): concentration dependency could be confirmed
ligand concentration from which responsiveness could be confirmed (CXCR3 [3]): ≥ 300 ng/mL
responsiveness to ligand (calcium signaling, fluorescence intensity) (CXCR3 [4]): a response was observed

MCP-3: CC chemokine known to weakly bind to CXCR3
binding to CXCR3 (CXCR3 [5]): weakly bind

MCP-4: CC chemokine known to weakly bind to CXCR3
binding to CXCR3 (CXCR3 [5]): weakly bind

MIP-3a: CC chemokine known to weakly bind to CXCR3
binding to CXCR3 (CXCR3 [5]): weakly bind

RANTES: CC chemokine known to weakly bind to CXCR3
binding to CXCR3 (CXCR3 [5]): weakly bind

eotaxin: CC chemokine known to weakly bind to CXCR3
binding to CXCR3 (CXCR3 [5]): weakly bind

human I-TAC (G/T) (from UniProt O14625 22-94) (ligand)
lowest ligand concentration giving a calcium response (FLIPR) in the CXCR3 stably expressing CHO/Gqi5 line #122-17 (human CXCR3 (human)): 100 ng/mL

B1: 6Ckine: CC chemokine known to weakly bind to CXCR3 (protein, UniProt O00585 24-134, looked up)
C-C motif chemokine 21: SDGGAQDCCLKYSQRKIPAKVVRSYRKQEPSLGCSIPAILFLPRKRSQAELCADPKELWVQQLMQHLDKTPSPQKPAQGCRKDRGASKTGKKGKGSKGCKRTERSQTPKGP
binding to CXCR3 (CXCR3 [5]): weakly bind

B2: Mig: CXC chemokine, physiological ligand for CXCR3; mouse Mig (BIOCARTA) (protein, UniProt P18340 22-126, looked up)
C-X-C motif chemokine 9: TLVIRNARCSCISTSRGTIHYKSLKDLKQFAPSPNCNKTEIIATLKNGDQTCLDPDSANVKKLMKEWEKKISQKKKQKRGKKHQKNMKNRKPKTPQSRRRSRKTT
blood glucose levels at 90 minutes after glucose loading [1]: decreased compared to the solvent control group
